Experimental findings from paper PMC4117778 are described below.

The target in this data set is human DNA polymerase beta (polβ) (Homo sapiens, UniProt P06746 1-335). Description: X-ray crystallography; gapped binary complex, no incoming nucleotide; open conformation; 2.4 Å; Crystallization conditions not in material; kinetics (turnover only, not listed): 50 mM Tris-HCl pH 7.5, 5 mM MgCl2, 100 mM KCl, 80 nM DNA, 37°C.

B1: single-nucleotide gapped DNA with templating Fm7dG (crystal) (dsDNA)
DNA 1: CCGACGTCGCATCAGC
DNA 2: GCTGATGCGA
DNA 3: GTCGG
modifications: template G6 = 2'-fluoro-N7-methyl-2'-deoxyguanosine (Fm7dG); 5'-phosphate on downstream primer GTCGG
Take B1: the binding result is “binds”.
